Data taken from patent publication US20250333515A1 (VOR BIOPHARMA, published 2025).

T1: CLL-1 on the surface of CLL-1-positive AML cell lines (HL-60 WT, U937) (human, UniProt Q5QGZ9 1-265)
T1 construct: whole, on cells; also called HL-60 WT cells; U937 cells
T1 sequence (looked up): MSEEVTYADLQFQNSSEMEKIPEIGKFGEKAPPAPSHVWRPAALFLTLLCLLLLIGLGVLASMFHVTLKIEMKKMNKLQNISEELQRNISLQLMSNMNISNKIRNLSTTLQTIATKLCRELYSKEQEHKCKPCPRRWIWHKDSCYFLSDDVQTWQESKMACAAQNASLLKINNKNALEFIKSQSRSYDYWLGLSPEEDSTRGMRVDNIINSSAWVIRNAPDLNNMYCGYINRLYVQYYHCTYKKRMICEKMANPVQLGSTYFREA

T2: biotinylated recombinant CLL-1 protein (UniProt Q5QGZ9 65-265, limits assumed, biotinylated (site not stated))
T2 construct: also called CLEC12A
T2 sequence (looked up): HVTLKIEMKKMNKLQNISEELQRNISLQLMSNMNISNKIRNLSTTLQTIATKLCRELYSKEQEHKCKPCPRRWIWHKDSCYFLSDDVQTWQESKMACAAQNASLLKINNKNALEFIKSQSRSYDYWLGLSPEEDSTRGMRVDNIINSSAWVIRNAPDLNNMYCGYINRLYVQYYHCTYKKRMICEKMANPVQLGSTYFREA

B1: Anti-CLL-1 Binder Clone 6 (scFv)
scFv: QSVLTQPPSVSAAPGQKVSIFCSGGSSNIGKNYVSWYQQLPGTAPKLLIYENQHRPSGIPDRFSGSKSGTSATLGITGLQTGDEADYYCATWDDSLSAGVFGGGTELTVLGGGGSGGGGSGGGGSQLVQSGAEVRKPGESLKISCKGSGYSFTSYWIGWVRQMPGKGLEWMGFIYPGDSDTRYSPSFQGQVTISADKSISTAYLQRSSLKASDTAMYYCARLGGYSGYDSEVFYLDYWGQGTTVTVSS
notes: scFv (VL-linker-VH); not shown: FLAG tag
B2: Anti-CLL-1 Binder Clone 1 (scFv)
scFv: SYVLTQPPSVSVAPGQTARITCGGNNIGSKSVHWYQQKPGQAPVLVVYDDSDRPSGIPERFSGSNSGNTATLTISRVEAGDEADYYCQVWDSSSDHPVFGGGTQLIILGGGGSGGGGSGGGGSQVQLVQSGAEVKKPGSSVKVSCKASGGTFSSYAISWVRQAPGQGLEWMGRIIPILGIANYAQKFQGRVTITADESTSTAYMELSSLRSEDTAVYYCAREKDDILTGAYYYGMDVWGQGTTVTVSS
notes: scFv (VL-linker-VH) from a fully human scFv phage library; not shown: FLAG tag
B3: Anti-CLL-1 Binder Clone 38 (scFv)
scFv: DIQMTQSPSTLSASVGDRVTITCRASQSISSWLAWYQQKPGKAPKLLIYTASSLQSGVPSRFSGSESGTDFTLTISSLQPEDFATYYCQQSYSTPLTFGGGTKVDIKGGGGSGGGGSGGGGSQVQLVQSGAEVKKPGASVKVSCKASGYTFTGYYMHWVRQAPGQGLEWMGWINPNSGGTNYAQKFQGRVTLTRDTSITTAYLELTSLTSDDTAVYYCARGDTGDFFDHWGQGTLVTVSS
notes: as for B1
B4: Anti-CLL-1 Binder Clone 12 (scFv)
scFv: DIQMTQSPSSLSASVGDRVTITCQASQDISNYLNWYQQKPGKAPKLLIYDASNLETGVPSRFSGSGSGTDFTLTISSPQPEDLATYYCQQANSFPFTFGQGTKVEIKGGGGSGGGGSGGGGSQVQLVQSGAEVKKPGSSVKVSCKASGYSFTRNDITWVRQANGRGLEWLGRLNPNNGDTVYAEVFQGRVAMTRDTSTDTAYMELASLKSDDTAVYFCARGFWSFDVWGQGTMVTVSS
notes: as for B1
B5: Anti-CLL-1 Binder Clone 4 (scFv)
scFv: QSVVTQPPSVSAAPGQKVTISCSGSSPNIGKNYVSWYQQLPGTAPKLLIYDNNKRPSGIPDRFSGSKSGTSATLGITGLQTGDEADYYCGTWDSSLSGYVFGTGTKVTVLGGGGSGGGGSGGGGSQVQLVESGGGVVQPGRSLRLSCAASGFTFSSYGMHWVRQAPGKGLEWVAFISHDGSNKYYADSVKGRSTISRDNSKSTLFLQMNSLRDEDTAVYFCAREGQLTTSWDFFDYWGHGTLVTVSS
notes: as for B1
B6: Anti-CLL-1 Binder Clone 20 (VHH)
VHH: QVQLVQSGGGLVQPGGSLRLSCAASDFSFSYYEMSWVRQAPGKGLEWVSTISGSGDSTYYADSVKGRFTISRDNTKNTLYLQMNTLRAEDTATYYCMTDGETWGTHRYTVYWGQGALVTVSS
notes: also called 20 VH; VH clone 20; not shown: FLAG tag
B7: Anti-CLL-1 Binder Clone 10 (scFv)
scFv: DIQMTQSPSFLSASVGDRVTITCRASQGISSYLAWYQQKPGKAPKLLIYSASSLQSGVPSRFSGSGSGTDFTLTISSLQPEDFATYYCQQSYNSPTFGQGTRLEIKGGGGSGGGGSGGGGSQVQLVQSGAEVKKPGASVKVSCKASGYTFTGYYMHWVRQAPGQGLEWMGWMNPNSGNTGYAQKFQGRVTMTRNTSISTAYLELTSLTSDDTAVYYCARGDTGDFFDHWGQGTLVTVSS
notes: as for B1
B8: Anti-CLL-1 Binder Clone 2 (scFv)
scFv: QSVLTQPLSVSVALGQTARITCGGNNIGSKNVHWYQQKAGQAPVLVIQRDSNRPSGIPERFSGSNSGNTATLTISRAQAGDEADYFCQVWDSNTYVFGTGTKLTVLGGGGSGGGGSGGGGSEVQLVESGGGLVKPGGSLRLSCAASGFTFSDYYMSWIRQAPGKGLEWVSYISSSGSTIYYADSVKGRFTISRDNAKNSLYLQMNSLRDEDTAVYYCARQSAEIVGAFDHWGQGTMVTVSS
notes: as for B1
B9: Anti-CLL-1 Binder Clone 42 (scFv)
scFv: EIVLTQSPATLSLSPGERATLSCRASQSVSSYLAWYQQKPGQAPRLLIYDASNRATGIPDRFSGSGSGTDFTLTISRLEPEDFAVYYCQQYGSSPVTFGQGTKLEIKGGGGSGGGGSGGGGSQVQLVQSGAEVKKPGSSVKVSCKASGGTFSSYAISWVRQAPGQGLEWMGGIIPIFGTANYAQKFQGRVIMTTDTSTSTAHMELRSLRSDDTAVYYCARDADEFGAFDIWGQGTTVTVSS
notes: as for B1
B10: Anti-CLL-1 Binder Clone 11 (scFv)
scFv: QSVLTQPASVSGSPGQSITISCTGTSSDVGASNSVSWYQRHPGKPPKLMIYDVSNRPSGISNRFSGSKSGNTASLTISGLQSEDEADYYCSSYTGSSTFVVFGGGTQLIILGGGGSGGGGSGGGGSEVQLVESGGGVVQPGGSLRLSCAASGFTFSSYWMSWVRQAPGKGLEWVANIRQDGSEKYYVDSVKGRFTISRDNAKNSLYLQMNSLRAEDAAVYYCAREQDTAMVAFDYWGQGTLVTVSS
notes: as for B1
B11: Anti-CLL-1 Binder Clone 40 (scFv)
scFv: QSVLTQPPSVSAAPGQKVTISCSGSSSNIGNNYVSWYQQLPGTAPKLLIYDNNKRPSGIPDRFSGSESGTSATLGITGLQTGDEADYYCGTWDSSLSAWVFGGGTQLIILGGGGSGGGGSGGGGSQVQLQQSGPGLVKPSQTLSLTCAISGDSVSSNSAAWNWIRQSPSRGLEWLGRTHYRSKWYNDYAVSVKSRITISADTSKNQFSLQLNSVTPEDTAVYYCARDRYTVRPDAFDIWGQGTTVTVSS
notes: as for B1

What follows are binders tested against T1, CLL-1 on the surface of CLL-1-positive … (assay: flow cytometry, U937, 200 nM; last table names out of step).
Method: (§1) HL60 WT, U937, or HL-60 CLL-1 knockout (KO) control cells were counted, washed in PBS and mixed with 1 ml of Fixable Viability dye eFluor 780 (diluted at 1:1000 in PBS) then incubated at room temperature for 10 minutes to distinguish Live/Dead cells. Subsequently the cells were washed once with FACS Buffer (PBS with 2% FBS) and incubated with human TruStain FcX™ (Fc block diluted at 1:10 in FACS buffer) at room temperature for 5 minutes. Fc blocked cells were stained with 50 μL of the primary CLL-1 antibody (at 200 nM concentrations) and incubated at 4° C. for 30 minutes in the dark. Cells were subsequently stained with 100 μL of secondary antibody (AF488 Rabbit anti-FLAG-tag diluted at 1:1000) incubated at 4° C. for 30 minutes in the dark. Cells were washed and flow cytometric analysis was performed using flow cytometry and data analysis was performed using FlowJo.
B1 was tested, and the “Geometric Mean : B530-H” value was 34300.
In the case of B2, the “Geometric Mean : B530-H” value is reported as 46300.
With B3 the “Geometric Mean : B530-H” value was 55300.
With B4 the “Geometric Mean : B530-H” value was 59600.
B5 was tested, and the “Geometric Mean : B530-H” value was 33600.
For B6, the “Geometric Mean : B530-H” value was 27000.
With B7 the “Geometric Mean : B530-H” value was 52100.
With B8 the “Geometric Mean : B530-H” value was 50800.
With B9 the “Geometric Mean : B530-H” value was 29000.
B10 was tested, and the “Geometric Mean : B530-H” value was 60200.

What follows are binders tested against T2, biotinylated recombinant CLL-1 protein (assay: ELISA; biotinylated CLL-1 on neutravidin plate, FLAG-tagged binder, anti-FLAG HRP).
Method: Dose-depending binding activities were analyzed by ELISA. COSTAR® microtiter plates were coated with 1 μg/mL neutravidin protein. Following washing, neutravidin-coated wells were seeded with 100 nM of biotinylated recombinant CLL-1 protein. Following washing, purified FLAG-tagged CLL-1 antibody binders were added to the wells and subsequently detected by mouse anti-FLAG tag HRP conjugate (Sigma).
For B1, the EC50 was 0.9 nM.
Work on B2 yielded an EC50 of 3.4 nM.
For B3, the EC50 was 0.6 nM.
B4 showed an EC50 of 3.7 nM.
With B5 the EC50 was 1.4 nM.
With B6 the EC50 was 4.7 nM.
With B7 the EC50 was 1.1 nM.
Binder B8 has an EC50 of 0.9 nM.
Work on B9 yielded an EC50 of 1.5 nM.
With B11 the EC50 was 0.5 nM.
With B10 the EC50 was 1.4 nM.

Each binder was assayed against T1, CLL-1 on the surface of CLL-1-positive … (assay: multi-point flow cytometry on HL-60 WT cells, FLAG-tagged binder, anti-FLAG AlexaFluor 488).
Method: Target cell staining was assessed relative to control samples comprising cells stained with secondary antibodies only (see FIG. 6). Multi-point FACS via flow cytometry was performed to assess dose-depending binding of CLL-1 antibody binders to the cell surface of HL-60 WT cells. Un-fixed, un-permeabilized cells were incubated with various concentrations of purified FLAG-tagged anti-CLL-1 antibody clones and cell-surface binding was detected by subsequent incubation in the presence of rabbit anti-FLAG tag antibody AlexaFluor 488-conjugate antibody (R&D Systems).
Work on B1 yielded an EC50 of 59 nM.
B2 gave an EC50 of 3.2 nM.
For B3, the EC50 was 1.6 nM.
B4 was tested, and the EC50 was 0.2 nM.
For B5, the EC50 was 6.4 nM.
Work on B7 yielded an EC50 of 0.2 nM.
With B8 the EC50 was 1.8 nM.
B9 showed an EC50 of 2.2 nM.
B11 gave an EC50 of 11.4 nM.
Work on B10 yielded an EC50 of 0.2 nM.

Each binder was assayed against T1, CLL-1 on the surface of CLL-1-positive … (assay: flow cytometry, HL-60 WT, 200 nM; secondary only 5600).
Method: as §1
In the case of B1, the “Geometric Mean : B530-H” value is reported as 9390.
For B2, the “Geometric Mean : B530-H” value was 18100.
In the case of B3, the “Geometric Mean : B530-H” value is reported as 19800.
With B4 the “Geometric Mean : B530-H” value was 11800.
With B5 the “Geometric Mean : B530-H” value was 11600.
With B6 the “Geometric Mean : B530-H” value was 9110.
B7 was tested, and the “Geometric Mean : B530-H” value was 24900.
With B8 the “Geometric Mean : B530-H” value was 11100.
For B9, the “Geometric Mean : B530-H” value was 10400.
B11 was tested, and the “Geometric Mean : B530-H” value was 23100.
For B10, the “Geometric Mean : B530-H” value was 20500.
